# Numbering of substitutions follows the chain as printed.
# B1: FJ2246MP07H09 (Fab, V domains shown)
# VH: EVQLVESGGDLVKPGGSLRLSCVASGFTFRDYAMTWVRQAPGKGLQWVSLINGSGGKTYYADAVKGRFTISRDNAKNTLYLQMNSLRAEDTAVYYCAVDRLTKTIRPQYYGLWSWGQGTLVTVSS
# VL: DIVMTQTPLSLSVSPGETASISCRSSQSLLYSIGYNYLDWYLQKPGQSPQGLIYLGSKRASGVPDRFSGSGSGTDFTLRISRVEANDTGVYYCMQGLQSPLTFGQGTKLEIKR
# B2: FJ2246MP10B07 (Fab, V domains shown)
# VH: B1 VH with N52S, S114V
# VL: DIVMTQTPLSLSVSPGETASISCRSSQSLLYSIGYNYLDWYLQKPGQSPQGLIYLGSKRASGVPDRFSGSGSGTDFTLRISRVEAEDTGVYYCMQGLHSPLTFGQGTKLEIK
# B3: FJ2246MP10H11 (Fab, V domains shown)
# VH: B1 VH with N52S, S114V
# VL: B2 VL with E86N, T102S
# B4: FJ2246MP10B12 (Fab, V domains shown)
# VH: B1 VH with N52S, S114V
# VL: B2 VL with S72N, T102S
# B5: FJ2246MP05A03 (Fab, V domains shown)
# VH: B1 VH with F27L, T28P, T35A, N52S, S114V
# VL: B1 VL
# B6: FJ2246MP10A09 (Fab, V domains shown)
# VH: B1 VH with N52S, S114V
# VL: B2 VL with T102S
# B7: FJ2246MP06D12 (Fab, V domains shown)
# VH: B1 VH with S54N, G55S, S114V
# VL: B1 VL
# B8: FJ2246MP10E12 (Fab, V domains shown)
# VH: B1 VH with N52S, S114V
# VL: B2 VL with H98Q, T102S
# B9: FJ2246MP06D01 (Fab, V domains shown)
# VH: B1 VH with T28P, I51V, G56S, S114V
# VL: B1 VL
# B10: FJ2246MP10B02 (Fab, V domains shown)
# VH: B1 VH with N52S, S114V
# VL: B2 VL with E86N
# B11: FJ2246MP06H01 (Fab, V domains shown)
# VH: B1 VH with S54D, G55A, G56S, S114V
# VL: B1 VL
# B12: FJ2246MP05F12 (Fab, V domains shown)
# VH: B1 VH with T28P, S114V
# VL: B1 VL
# B13: FJ2246MP06A09 (Fab, V domains shown)
# VH: B1 VH with S54N, G56S, S114V
# VL: B1 VL
# B14: FJ2246MP06F01 (Fab, V domains shown)
# VH: B1 VH with G56T, S114V
# VL: B1 VL
# B15: FJ2246MP10A10 (Fab, V domains shown)
# VH: B1 VH with N52S, S114V
# VL: B2 VL
# B16: FJ2246MP06C02 (Fab, V domains shown)
# VH: B1 VH with S54D, G56S, T58V, S114V
# VL: B1 VL
# B17: FJ2246MP06H07 (Fab, V domains shown)
# VH: B1 VH with S54T, S114A
# VL: B1 VL
# B18: FJ2246MP06C01 (Fab, V domains shown)
# VH: B1 VH with S54N, S114V
# VL: B1 VL
# B19: FJ2246MP10G07 (Fab, V domains shown)
# VH: B1 VH with N52S, S114V
# VL: B2 VL with E86D
# B20: FJ2246MP06C10 (Fab, V domains shown)
# VH: B1 VH with S114V
# VL: B1 VL
# B21: FJ2246MP07A09 (Fab, V domains shown)
# VH: B1 VH with L112M
# VL: B1 VL
# B22: FJ2246MP06G08 (Fab, V domains shown)
# VH: B1 VH with S54N, G56S, S114V
# VL: B1 VL
# B23: FJ2246MP10G04 (Fab, V domains shown)
# VH: B1 VH with N52S, S114V
# VL: B2 VL with H98Q, T102S
# B24: FJ2246MP06E12 (Fab, V domains shown)
# VH: B1 VH with S54N, S114V
# VL: B1 VL
# B25: FJ2246MP10F04 (Fab, V domains shown)
# VH: B1 VH with N52S, S114V
# VL: B2 VL with Q27K, E86D
# B26: FJ2246MP07A10 (Fab, V domains shown)
# VH: B1 VH with I105V
# VL: B1 VL
# B27: FJ2246MP06E01 (Fab, V domains shown)
# VH: B1 VH with S114V
# VL: B1 VL
# B28: FJ2246MP07E01 (Fab, V domains shown)
# VH: B1 VH with N52S
# VL: B1 VL
# B29: FJ2246MP10H03 (Fab, V domains shown)
# VH: B1 VH with N52S, S114V
# VL: B2 VL with H98R, T102S
# B30: FJ2246MP10D01 (Fab, V domains shown)
# VH: B1 VH with N52S, S114V
# VL: B2 VL with E86D, H98Q, T102S
# B31: FJ2246MP06D11 (Fab, V domains shown)
# VH: B1 VH with S114V
# VL: B1 VL
# Target: canine IL-4RA (construct not given) (canine)
# Test: SPR, IL-4RA immobilised, periplasmic Fab
Improvement over parental [fold],RU max [RU],koff [s⁻¹],Binder
5.4,509,5.23e-05,B1
2.2,252,0.000125,B2
2.8,261,9.9e-05,B3
3,304,9.41e-05,B4
2.3,400,0.000124,B5
3.1,437,8.91e-05,B6
2.7,154,0.000102,B7
2,251,0.000139,B8
3.6,323,7.72e-05,B9
2.2,202,0.000127,B10
2.6,225,0.000106,B11
3.2,208,8.83e-05,B12
2.6,152,0.000106,B13
2.5,199,0.000112,B14
2.2,369,0.000126,B15
2.2,272,0.000126,B16

Improvement over parental [fold],RU max [RU],koff [s⁻¹],Binder
3.7,568,7.5e-05,B17
2.3,160,0.000122,B18
2.5,372,0.000111,B19
2.1,135,0.000133,B20
4.2,252,6.73e-05,B21
3.1,199,9.01e-05,B22
2.1,251,0.000134,B23
2.9,127,9.66e-05,B24
3.1,292,9.16e-05,B25
3.4,614,8.18e-05,B26
2.4,152,0.000119,B27
2.1,423,0.000135,B28
2.2,243,0.000126,B29
2,283,0.000137,B30
2.1,146,0.000132,B31
